# In patent US20260071199A1 (JENTHERA THERAPEUTICS, published 2026):
# B1: modified nuclease L2 (other)
# chain: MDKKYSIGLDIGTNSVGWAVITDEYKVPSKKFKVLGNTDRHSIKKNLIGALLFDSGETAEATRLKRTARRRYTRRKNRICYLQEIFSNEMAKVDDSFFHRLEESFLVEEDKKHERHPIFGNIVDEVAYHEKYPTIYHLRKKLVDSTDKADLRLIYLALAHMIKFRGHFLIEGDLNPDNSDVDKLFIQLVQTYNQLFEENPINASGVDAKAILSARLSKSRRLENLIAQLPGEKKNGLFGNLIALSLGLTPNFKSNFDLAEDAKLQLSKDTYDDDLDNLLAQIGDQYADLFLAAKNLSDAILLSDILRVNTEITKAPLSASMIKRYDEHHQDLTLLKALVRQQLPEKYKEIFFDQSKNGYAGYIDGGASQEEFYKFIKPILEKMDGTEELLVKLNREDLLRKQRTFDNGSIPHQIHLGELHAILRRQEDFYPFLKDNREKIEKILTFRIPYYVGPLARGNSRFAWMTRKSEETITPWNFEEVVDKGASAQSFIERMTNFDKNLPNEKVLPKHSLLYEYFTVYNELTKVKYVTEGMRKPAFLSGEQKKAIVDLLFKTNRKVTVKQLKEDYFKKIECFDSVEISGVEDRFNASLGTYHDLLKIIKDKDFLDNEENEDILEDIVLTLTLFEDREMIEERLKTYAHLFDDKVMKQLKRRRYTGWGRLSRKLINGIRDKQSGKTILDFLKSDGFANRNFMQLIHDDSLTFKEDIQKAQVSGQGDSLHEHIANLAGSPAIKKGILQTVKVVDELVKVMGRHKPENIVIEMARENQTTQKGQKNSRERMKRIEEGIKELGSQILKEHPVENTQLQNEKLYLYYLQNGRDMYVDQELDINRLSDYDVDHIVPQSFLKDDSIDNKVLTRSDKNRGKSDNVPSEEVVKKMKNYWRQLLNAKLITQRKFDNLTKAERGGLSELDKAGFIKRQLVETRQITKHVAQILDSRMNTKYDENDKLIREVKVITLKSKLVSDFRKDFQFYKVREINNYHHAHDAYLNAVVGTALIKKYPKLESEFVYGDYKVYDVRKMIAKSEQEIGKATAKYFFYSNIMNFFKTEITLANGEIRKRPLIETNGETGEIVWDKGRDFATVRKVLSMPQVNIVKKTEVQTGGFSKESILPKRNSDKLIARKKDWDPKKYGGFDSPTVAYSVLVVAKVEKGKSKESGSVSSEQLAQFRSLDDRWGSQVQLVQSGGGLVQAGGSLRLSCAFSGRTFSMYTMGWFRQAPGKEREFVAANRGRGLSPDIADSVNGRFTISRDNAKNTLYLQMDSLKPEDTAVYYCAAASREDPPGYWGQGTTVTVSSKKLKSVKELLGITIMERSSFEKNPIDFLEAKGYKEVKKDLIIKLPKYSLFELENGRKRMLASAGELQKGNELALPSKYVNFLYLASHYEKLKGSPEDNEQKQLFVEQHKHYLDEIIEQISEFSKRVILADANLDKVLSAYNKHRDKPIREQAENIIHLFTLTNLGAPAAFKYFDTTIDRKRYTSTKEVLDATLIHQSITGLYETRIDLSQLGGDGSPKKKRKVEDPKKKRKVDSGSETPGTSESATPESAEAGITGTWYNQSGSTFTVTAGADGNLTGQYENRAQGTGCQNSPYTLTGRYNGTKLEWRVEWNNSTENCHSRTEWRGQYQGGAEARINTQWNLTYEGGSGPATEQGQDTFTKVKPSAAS
# B2: modified nuclease Zero (other)
# chain: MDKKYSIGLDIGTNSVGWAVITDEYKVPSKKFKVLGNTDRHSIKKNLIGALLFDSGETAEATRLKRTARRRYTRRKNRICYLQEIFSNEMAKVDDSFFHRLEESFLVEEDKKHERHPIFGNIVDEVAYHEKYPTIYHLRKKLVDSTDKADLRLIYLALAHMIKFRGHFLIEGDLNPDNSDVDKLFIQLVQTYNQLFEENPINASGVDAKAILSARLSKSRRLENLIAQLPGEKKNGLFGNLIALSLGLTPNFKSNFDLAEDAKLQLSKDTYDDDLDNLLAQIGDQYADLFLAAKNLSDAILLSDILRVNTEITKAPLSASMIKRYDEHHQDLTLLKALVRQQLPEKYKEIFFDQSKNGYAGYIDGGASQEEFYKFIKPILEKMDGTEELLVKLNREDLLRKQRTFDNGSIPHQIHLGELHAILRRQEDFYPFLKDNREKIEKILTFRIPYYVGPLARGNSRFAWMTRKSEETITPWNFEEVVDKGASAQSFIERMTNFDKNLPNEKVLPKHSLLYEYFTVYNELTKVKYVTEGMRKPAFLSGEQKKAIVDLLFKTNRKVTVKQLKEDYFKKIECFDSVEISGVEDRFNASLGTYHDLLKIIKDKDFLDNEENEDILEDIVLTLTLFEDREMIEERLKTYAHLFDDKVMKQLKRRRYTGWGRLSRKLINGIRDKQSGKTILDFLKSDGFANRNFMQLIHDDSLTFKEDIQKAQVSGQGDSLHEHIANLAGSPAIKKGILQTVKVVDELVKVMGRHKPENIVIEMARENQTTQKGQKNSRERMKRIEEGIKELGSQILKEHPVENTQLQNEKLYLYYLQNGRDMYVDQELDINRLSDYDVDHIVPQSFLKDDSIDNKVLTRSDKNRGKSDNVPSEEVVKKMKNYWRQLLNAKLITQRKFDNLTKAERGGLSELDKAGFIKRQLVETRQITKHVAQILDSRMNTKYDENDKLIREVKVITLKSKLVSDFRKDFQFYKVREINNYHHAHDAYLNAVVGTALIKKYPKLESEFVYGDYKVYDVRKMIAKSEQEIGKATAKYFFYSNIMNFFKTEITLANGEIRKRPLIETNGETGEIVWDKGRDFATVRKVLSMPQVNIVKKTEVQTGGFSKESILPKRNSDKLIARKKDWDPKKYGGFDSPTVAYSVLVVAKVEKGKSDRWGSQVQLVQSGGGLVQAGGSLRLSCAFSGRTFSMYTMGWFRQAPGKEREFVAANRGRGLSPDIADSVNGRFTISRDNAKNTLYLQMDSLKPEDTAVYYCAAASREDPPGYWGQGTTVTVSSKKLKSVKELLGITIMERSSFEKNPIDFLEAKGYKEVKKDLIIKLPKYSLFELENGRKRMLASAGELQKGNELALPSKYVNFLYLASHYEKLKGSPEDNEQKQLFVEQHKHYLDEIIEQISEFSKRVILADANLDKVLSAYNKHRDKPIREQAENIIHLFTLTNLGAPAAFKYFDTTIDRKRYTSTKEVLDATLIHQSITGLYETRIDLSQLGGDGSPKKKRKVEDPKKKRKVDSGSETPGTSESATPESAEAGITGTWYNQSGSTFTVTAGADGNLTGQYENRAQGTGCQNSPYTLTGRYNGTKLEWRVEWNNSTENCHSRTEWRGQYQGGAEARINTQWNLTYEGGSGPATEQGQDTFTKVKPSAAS
# B3: modified nuclease L1 (other)
# chain: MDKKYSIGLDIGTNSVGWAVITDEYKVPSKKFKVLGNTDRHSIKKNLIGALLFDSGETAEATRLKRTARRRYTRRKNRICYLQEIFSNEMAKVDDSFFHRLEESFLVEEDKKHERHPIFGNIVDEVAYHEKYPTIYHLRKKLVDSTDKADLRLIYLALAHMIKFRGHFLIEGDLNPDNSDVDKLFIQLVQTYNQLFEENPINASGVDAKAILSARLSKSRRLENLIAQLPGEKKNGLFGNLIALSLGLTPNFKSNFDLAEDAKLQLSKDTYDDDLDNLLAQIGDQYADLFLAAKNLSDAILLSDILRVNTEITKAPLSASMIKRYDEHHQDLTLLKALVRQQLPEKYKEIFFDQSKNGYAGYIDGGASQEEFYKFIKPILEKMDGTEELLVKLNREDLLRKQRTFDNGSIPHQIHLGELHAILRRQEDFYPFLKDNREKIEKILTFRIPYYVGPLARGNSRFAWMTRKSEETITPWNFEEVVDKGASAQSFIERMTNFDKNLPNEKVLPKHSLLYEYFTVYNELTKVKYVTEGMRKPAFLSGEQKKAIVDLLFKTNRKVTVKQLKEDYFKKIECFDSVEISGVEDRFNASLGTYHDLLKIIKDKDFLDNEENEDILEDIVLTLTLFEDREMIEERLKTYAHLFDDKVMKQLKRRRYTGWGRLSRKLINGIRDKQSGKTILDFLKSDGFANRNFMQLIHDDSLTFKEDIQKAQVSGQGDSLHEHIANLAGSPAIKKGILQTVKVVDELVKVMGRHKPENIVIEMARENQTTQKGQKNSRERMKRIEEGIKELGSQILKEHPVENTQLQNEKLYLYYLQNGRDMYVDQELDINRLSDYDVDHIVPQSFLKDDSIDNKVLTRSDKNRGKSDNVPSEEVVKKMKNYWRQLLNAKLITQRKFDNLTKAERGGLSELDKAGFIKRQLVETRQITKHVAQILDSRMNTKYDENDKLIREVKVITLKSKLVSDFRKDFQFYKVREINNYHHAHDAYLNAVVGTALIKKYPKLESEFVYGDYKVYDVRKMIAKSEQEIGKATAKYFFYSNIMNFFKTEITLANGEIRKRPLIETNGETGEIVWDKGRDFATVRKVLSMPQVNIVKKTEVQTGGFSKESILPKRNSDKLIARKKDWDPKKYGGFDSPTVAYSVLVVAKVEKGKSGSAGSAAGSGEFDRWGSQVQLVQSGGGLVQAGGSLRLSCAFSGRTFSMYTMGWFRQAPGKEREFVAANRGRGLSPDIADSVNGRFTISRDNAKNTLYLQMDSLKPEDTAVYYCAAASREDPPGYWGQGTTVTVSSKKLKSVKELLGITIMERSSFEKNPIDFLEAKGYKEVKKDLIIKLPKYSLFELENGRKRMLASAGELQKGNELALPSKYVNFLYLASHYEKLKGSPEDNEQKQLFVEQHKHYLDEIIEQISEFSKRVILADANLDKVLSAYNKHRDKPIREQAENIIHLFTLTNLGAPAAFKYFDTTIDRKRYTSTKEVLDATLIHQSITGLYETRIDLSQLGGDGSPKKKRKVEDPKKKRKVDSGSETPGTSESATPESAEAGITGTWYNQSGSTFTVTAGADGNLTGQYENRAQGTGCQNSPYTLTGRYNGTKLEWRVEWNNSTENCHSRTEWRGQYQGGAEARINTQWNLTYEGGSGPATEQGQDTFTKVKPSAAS
# Biological target: T1, CD4 on CD4+ T cells (Jurkat CD4+ T cells; human primary CD4+ T cells) (human, UniProt P01730 26-458)
# T1 construct: whole, on cells; also called CD4 receptor
# Assay: flow cytometry, TAMRA-labelled nuclease, 1 h on Jurkat CD4+ T cells
row,Binder,delivery (percent of cells TAMRA-positive) [%]
1,B1,> 99
2,B2,> 99
3,B3,> 99
